Results: patent publication US20100167314A1

Target: human pNBC1 (pancreas-type Na/HCO3 cotransporter 1) (human), Q9Y6R1
Test: cell-based or functional assay

Sequence of human pNBC1 (pancreas-type Na/HCO3 cotransporter 1) (human), Q9Y6R1 (Q9Y6R1 whole entry): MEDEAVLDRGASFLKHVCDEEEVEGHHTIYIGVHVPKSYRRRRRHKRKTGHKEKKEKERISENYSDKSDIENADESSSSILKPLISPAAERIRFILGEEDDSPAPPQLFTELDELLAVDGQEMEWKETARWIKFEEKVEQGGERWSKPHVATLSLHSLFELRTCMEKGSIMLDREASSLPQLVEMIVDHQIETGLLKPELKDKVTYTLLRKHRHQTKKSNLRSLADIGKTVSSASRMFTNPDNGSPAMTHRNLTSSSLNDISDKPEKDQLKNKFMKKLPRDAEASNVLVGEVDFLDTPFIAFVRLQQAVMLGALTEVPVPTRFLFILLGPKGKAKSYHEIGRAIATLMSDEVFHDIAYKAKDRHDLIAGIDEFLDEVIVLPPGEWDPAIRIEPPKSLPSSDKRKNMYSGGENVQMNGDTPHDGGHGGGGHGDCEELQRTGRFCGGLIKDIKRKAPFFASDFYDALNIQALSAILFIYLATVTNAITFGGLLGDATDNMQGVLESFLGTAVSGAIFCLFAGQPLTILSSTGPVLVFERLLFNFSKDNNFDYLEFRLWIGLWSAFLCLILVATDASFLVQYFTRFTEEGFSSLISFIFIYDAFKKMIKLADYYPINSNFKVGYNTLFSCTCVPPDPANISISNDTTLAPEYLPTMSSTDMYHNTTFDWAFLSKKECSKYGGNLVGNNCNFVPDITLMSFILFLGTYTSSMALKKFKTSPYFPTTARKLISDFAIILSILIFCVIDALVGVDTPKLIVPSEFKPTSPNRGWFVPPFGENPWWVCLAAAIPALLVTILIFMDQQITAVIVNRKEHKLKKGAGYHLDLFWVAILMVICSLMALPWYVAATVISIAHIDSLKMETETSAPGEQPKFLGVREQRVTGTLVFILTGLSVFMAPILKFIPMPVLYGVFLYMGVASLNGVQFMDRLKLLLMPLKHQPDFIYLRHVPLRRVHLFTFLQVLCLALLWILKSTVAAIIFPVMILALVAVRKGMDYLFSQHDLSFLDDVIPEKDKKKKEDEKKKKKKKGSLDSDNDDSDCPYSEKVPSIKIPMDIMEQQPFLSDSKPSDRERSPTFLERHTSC

current change at a membrane potential of -25 mV when ND96 solution was replaced by ND96+HCO3- solution (voltage clamp, Xenopus oocytes): 6 to 7 times
B1: mouse IRBIT (IP3 receptor-binding protein; IP3R-binding protein released with inositol 1,4,5-trisphosphate), Q80SW1 1-530 (protein)
chain: MSMPDAMPLPGVGEELKQAKEIEDAEKYSFMATVTKAPKKQIQFADDMQEFTKFPTKTGRRSLSRSISQSSTDSYSSAASYTDSSDDEVSPREKQQTNSKGSSNFCVKNIKQAEFGRREIEIAEQDMSALISLRKRAQGEKPLAGAKIVGCTHITAQTAVLIETLCALGAQCRWSACNIYSTQNEVAAALAEAGVAVFAWKGESEDDFWWCIDRCVNMDGWQANMILDDGGDLTHWVYKKYPNVFKKIRGIVEESVTGVHRLYQLSKAGKLCVPAMNVNDSVTKQKFDNLYCCRESILDGLKRTTDVMFGGKQVVVCGYGEVGKGCCAALKALGAIVYITEIDPICALQACMDGFRVVKLNEVIRQVDVVITCTGNKNVVTREHLDRMKNSCIVCNMGHSNTEIDVTSLRTPELTWERVRSQVDHVIWPDGKRVVLLAEGRLLNLSCSTVPTFVLSITATTQALALIELYNAPEGRYKQDVYLLPKKMDEYVASLHLPSFDAHLTELTDDQAKYLGLNKNGPFKPNYYRY
